To fix the notation:
T1: EsCas13d, nuclease-dead (Eubacterium siraeum, UniProt B0MS50, R295A;H300A;R849A;H854A)
T1 sequence: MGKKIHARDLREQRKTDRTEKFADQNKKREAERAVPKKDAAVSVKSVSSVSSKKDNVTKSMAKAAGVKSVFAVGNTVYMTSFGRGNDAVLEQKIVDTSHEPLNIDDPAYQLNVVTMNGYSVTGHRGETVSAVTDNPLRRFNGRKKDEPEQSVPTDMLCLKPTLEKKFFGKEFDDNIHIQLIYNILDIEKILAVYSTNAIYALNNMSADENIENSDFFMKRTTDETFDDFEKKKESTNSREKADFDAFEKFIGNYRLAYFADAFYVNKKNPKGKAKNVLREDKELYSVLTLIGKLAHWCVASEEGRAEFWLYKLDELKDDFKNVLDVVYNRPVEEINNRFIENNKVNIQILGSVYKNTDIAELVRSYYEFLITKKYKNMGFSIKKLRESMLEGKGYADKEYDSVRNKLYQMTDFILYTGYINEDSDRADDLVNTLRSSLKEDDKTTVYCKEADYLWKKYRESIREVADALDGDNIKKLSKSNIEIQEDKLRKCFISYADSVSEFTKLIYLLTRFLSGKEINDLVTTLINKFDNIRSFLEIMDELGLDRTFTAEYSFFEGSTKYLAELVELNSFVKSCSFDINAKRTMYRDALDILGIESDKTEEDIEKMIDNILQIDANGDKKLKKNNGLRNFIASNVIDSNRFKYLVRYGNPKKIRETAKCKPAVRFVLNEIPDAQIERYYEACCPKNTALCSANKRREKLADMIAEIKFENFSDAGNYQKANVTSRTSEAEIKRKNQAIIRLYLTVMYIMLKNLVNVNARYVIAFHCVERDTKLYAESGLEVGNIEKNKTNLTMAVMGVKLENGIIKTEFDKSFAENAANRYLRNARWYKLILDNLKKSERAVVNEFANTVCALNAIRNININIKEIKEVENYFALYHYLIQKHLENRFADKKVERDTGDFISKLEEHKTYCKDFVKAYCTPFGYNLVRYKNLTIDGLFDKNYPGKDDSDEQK

B1: target 1 insC 3' of 10,insU 3' of 2 (mixed)
RNA 1: CACCCGUGCAAAAAUGCAGGGGUCUAAAACUGAGCGGAUAACCUCUCUAUGG
RNA 2: GGGAAUGGAUCCACAUCUACGAAUUCGUACCAUAGAGAGGUUCAUCCGCUCUACCGAGAUCGGAAGAGCACACGU
B2: target 1 A1G,C7U (mixed)
RNA 1: CACCCGUGCAAAAAUGCAGGGGUCUAAAACUGAGCGGAUAACCUCUCUAUGG
RNA 2: GGGAAUGGAUCCACAUCUACGAAUUCGUACCAUAGAGAGGUUAUUCGCUCGCCGAGAUCGGAAGAGCACACGU
B3: target 1 insG 3' of 2,insG 3' of 1 (mixed)
RNA 1: CACCCGUGCAAAAAUGCAGGGGUCUAAAACUGAGCGGAUAACCUCUCUAUGG
RNA 2: GGGAAUGGAUCCACAUCUACGAAUUCGUACCAUAGAGAGGUUAUCCGCUCGAGCCGAGAUCGGAAGAGCACACGU
B4: target 1 insC 3' of 12,insU 3' of 6 (mixed)
RNA 1: CACCCGUGCAAAAAUGCAGGGGUCUAAAACUGAGCGGAUAACCUCUCUAUGG
RNA 2: GGGAAUGGAUCCACAUCUACGAAUUCGUACCAUAGAGAGGCUUAUCCUGCUCACCGAGAUCGGAAGAGCACACGU
B5: target 1 insU 3' of 5,insC 3' of 1 (mixed)
RNA 1: CACCCGUGCAAAAAUGCAGGGGUCUAAAACUGAGCGGAUAACCUCUCUAUGG
RNA 2: GGGAAUGGAUCCACAUCUACGAAUUCGUACCAUAGAGAGGUUAUCCGUCUCACCCGAGAUCGGAAGAGCACACGU
B6: target 1 insU 3' of 20,insG 3' of 19 (mixed)
RNA 1: CACCCGUGCAAAAAUGCAGGGGUCUAAAACUGAGCGGAUAACCUCUCUAUGG
RNA 2: GGGAAUGGAUCCACAUCUACGAAUUCGUACCAUUGAGAGAGGUUAUCCGCUCACCGAGAUCGGAAGAGCACACGU
B7: target 1 G13A,G15C (mixed)
RNA 1: CACCCGUGCAAAAAUGCAGGGGUCUAAAACUGAGCGGAUAACCUCUCUAUGG
RNA 2: GGGAAUGGAUCCACAUCUACGAAUUCGUACCAUAGACAAGUUAUCCGCUCACCGAGAUCGGAAGAGCACACGU
B8: target 1 C2U,A18U (mixed)
RNA 1: CACCCGUGCAAAAAUGCAGGGGUCUAAAACUGAGCGGAUAACCUCUCUAUGG
RNA 2: GGGAAUGGAUCCACAUCUACGAAUUCGUACCAUUGAGAGGUUAUCCGCUUACCGAGAUCGGAAGAGCACACGU
B9: target 1 A1C,C7U (mixed)
RNA 1: CACCCGUGCAAAAAUGCAGGGGUCUAAAACUGAGCGGAUAACCUCUCUAUGG
RNA 2: GGGAAUGGAUCCACAUCUACGAAUUCGUACCAUAGAGAGGUUAUUCGCUCCCCGAGAUCGGAAGAGCACACGU
B10: target 1 insU 3' of 22,insG 3' of 3 (mixed)
RNA 1: CACCCGUGCAAAAAUGCAGGGGUCUAAAACUGAGCGGAUAACCUCUCUAUGG
RNA 2: GGGAAUGGAUCCACAUCUACGAAUUCGUACUCAUAGAGAGGUUAUCCGCUGCACCGAGAUCGGAAGAGCACACGU
B11: target 1 G5C,A9C (mixed)
RNA 1: CACCCGUGCAAAAAUGCAGGGGUCUAAAACUGAGCGGAUAACCUCUCUAUGG
RNA 2: GGGAAUGGAUCCACAUCUACGAAUUCGUACCAUAGAGAGGUUCUCCCCUCACCGAGAUCGGAAGAGCACACGU
B12: target 1 insA 3' of 13,insG 3' of 6 (mixed)
RNA 1: CACCCGUGCAAAAAUGCAGGGGUCUAAAACUGAGCGGAUAACCUCUCUAUGG
RNA 2: GGGAAUGGAUCCACAUCUACGAAUUCGUACCAUAGAGAGAGUUAUCCGGCUCACCGAGAUCGGAAGAGCACACGU
B13: target 1 U10A,A18C (mixed)
RNA 1: CACCCGUGCAAAAAUGCAGGGGUCUAAAACUGAGCGGAUAACCUCUCUAUGG
RNA 2: GGGAAUGGAUCCACAUCUACGAAUUCGUACCAUCGAGAGGUAAUCCGCUCACCGAGAUCGGAAGAGCACACGU
B14: target 1 insC 3' of 22,insG 3' of 20 (mixed)
RNA 1: CACCCGUGCAAAAAUGCAGGGGUCUAAAACUGAGCGGAUAACCUCUCUAUGG
RNA 2: GGGAAUGGAUCCACAUCUACGAAUUCGUACCCAGUAGAGAGGUUAUCCGCUCACCGAGAUCGGAAGAGCACACGU
B15: target 1 A1U,C7U (mixed)
RNA 1: CACCCGUGCAAAAAUGCAGGGGUCUAAAACUGAGCGGAUAACCUCUCUAUGG
RNA 2: GGGAAUGGAUCCACAUCUACGAAUUCGUACCAUAGAGAGGUUAUUCGCUCUCCGAGAUCGGAAGAGCACACGU
B16: target 1 insA 3' of 15,insA 3' of 5 (mixed)
RNA 1: CACCCGUGCAAAAAUGCAGGGGUCUAAAACUGAGCGGAUAACCUCUCUAUGG
RNA 2: GGGAAUGGAUCCACAUCUACGAAUUCGUACCAUAGAGAAGGUUAUCCGACUCACCGAGAUCGGAAGAGCACACGU
B17: target 1 insG 3' of 7,insG 3' of 4 (mixed)
RNA 1: CACCCGUGCAAAAAUGCAGGGGUCUAAAACUGAGCGGAUAACCUCUCUAUGG
RNA 2: GGGAAUGGAUCCACAUCUACGAAUUCGUACCAUAGAGAGGUUAUCGCGCGUCACCGAGAUCGGAAGAGCACACGU
B18: target 1 insG 3' of 4 (mixed)
RNA 1: CACCCGUGCAAAAAUGCAGGGGUCUAAAACUGAGCGGAUAACCUCUCUAUGG
RNA 2: GGGAAUGGAUCCACAUCUACGAAUUCGUACCAUAGAGAGGUUAUCCGCGUCACCGAGAUCGGAAGAGCACACGU
B19: target 1 insG 3' of 20,insU 3' of 20 (mixed)
RNA 1: CACCCGUGCAAAAAUGCAGGGGUCUAAAACUGAGCGGAUAACCUCUCUAUGG
RNA 2: GGGAAUGGAUCCACAUCUACGAAUUCGUACCAGUUAGAGAGGUUAUCCGCUCACCGAGAUCGGAAGAGCACACGU
B20: target 1 insA 3' of 4,insU 3' of 2 (mixed)
RNA 1: CACCCGUGCAAAAAUGCAGGGGUCUAAAACUGAGCGGAUAACCUCUCUAUGG
RNA 2: GGGAAUGGAUCCACAUCUACGAAUUCGUACCAUAGAGAGGUUAUCCGCAUCUACCGAGAUCGGAAGAGCACACGU
B21: target 1 C2A,C22U (mixed)
RNA 1: CACCCGUGCAAAAAUGCAGGGGUCUAAAACUGAGCGGAUAACCUCUCUAUGG
RNA 2: GGGAAUGGAUCCACAUCUACGAAUUCGUAUCAUAGAGAGGUUAUCCGCUAACCGAGAUCGGAAGAGCACACGU
B22: target 1 insG 3' of 6,insU 3' of 5 (mixed)
RNA 1: CACCCGUGCAAAAAUGCAGGGGUCUAAAACUGAGCGGAUAACCUCUCUAUGG
RNA 2: GGGAAUGGAUCCACAUCUACGAAUUCGUACCAUAGAGAGGUUAUCCGGUCUCACCGAGAUCGGAAGAGCACACGU
B23: target 1 complement block 2-13 (mixed)
RNA 1: CACCCGUGCAAAAAUGCAGGGGUCUAAAACUGAGCGGAUAACCUCUCUAUGG
RNA 2: GGGAAUGGAUCCACAUCUACGAAUUCGUACCAUAGAGACCAAUAGGCGAGACCGAGAUCGGAAGAGCACACGU
B24: target 1 insU 3' of 5,insA 3' of 2 (mixed)
RNA 1: CACCCGUGCAAAAAUGCAGGGGUCUAAAACUGAGCGGAUAACCUCUCUAUGG
RNA 2: GGGAAUGGAUCCACAUCUACGAAUUCGUACCAUAGAGAGGUUAUCCGUCUCAACCGAGAUCGGAAGAGCACACGU
B25: target 1 insA 3' of 10,insG 3' of 10 (mixed)
RNA 1: CACCCGUGCAAAAAUGCAGGGGUCUAAAACUGAGCGGAUAACCUCUCUAUGG
RNA 2: GGGAAUGGAUCCACAUCUACGAAUUCGUACCAUAGAGAGGUUAGAUCCGCUCACCGAGAUCGGAAGAGCACACGU
B26: target 1 insC 3' of 18,insG 3' of 9 (mixed)
RNA 1: CACCCGUGCAAAAAUGCAGGGGUCUAAAACUGAGCGGAUAACCUCUCUAUGG
RNA 2: GGGAAUGGAUCCACAUCUACGAAUUCGUACCAUACGAGAGGUUAGUCCGCUCACCGAGAUCGGAAGAGCACACGU
B27: target 1 insG 3' of 16,insU 3' of 5 (mixed)
RNA 1: CACCCGUGCAAAAAUGCAGGGGUCUAAAACUGAGCGGAUAACCUCUCUAUGG
RNA 2: GGGAAUGGAUCCACAUCUACGAAUUCGUACCAUAGAGGAGGUUAUCCGUCUCACCGAGAUCGGAAGAGCACACGU

The data set has as its target T1, EsCas13d, nuclease-dead. As to the kind of experiment: crRNA (strand 1, pre-loaded); Mg2+; 40 mM Tris-HCl pH 7.5, 150 mM NaCl, 6 mM MgCl2, 1 mM DTT, 0.1% Tween-20, 0.2 mg/ml BSA; 25 C; 10 min per concentration, then washed. The settings on record: tags: His6-TwinStrep-SUMO cleaved; N-terminal SNAP kept (SNAP-Surface 488); label: 3' end held by stalled T7 RNA polymerase.
B1 showed a Kd of 23.9 ± 2.3 nM. B2 displayed an equilibrium dissociation constant (Kd) of 9.2 ± 0.7 nM. On to B3, for which binding was put at a Kd of 7 ± 0.6 nM. Under B4 stands 16.4 ± 0.7 nM; under B5, 21.6 ± 2.4 nM; under B6, 30.4 ± 1.8 nM. Molecule B7 came in with a Kd of 36 ± 9 nM. As for B8, the figure is 21.2 ± 1.5 nM. In the case of B9, binding was put at a Kd of 9.6 ± 0.9 nM. B10 returned a Kd of 25.3 ± 1.7 nM. In turn, B11 returned an equilibrium dissociation constant (Kd) of 16.7 ± 0.8 nM.

On to B12, for which the dissociation constant (Kd) is 3.93 ± 0.27 nM. Regarding B13, the dissociation constant (Kd) was 100 ± 17 nM.

On to B14, for which the Kd came to 23.2 ± 2.3 nM. B15: binding was characterised by a dissociation constant (Kd) of 9.1 ± 1.3 nM. For B16, the Kd is 15.9 ± 2 nM. Molecule B17 returned a Kd of 6.23 ± 0.3 nM. The molecule B18 had a Kd of 6.65 ± 0.25 nM.

Molecule B19 returned a dissociation constant Kd of 28.4 ± 1.6 nM. Under B20 stands 9.4 ± 0.9 nM; under B21, roughly 30 nM; under B22, 5.6 ± 0.6 nM. B23: binding was put at a Kd of 74 ± 11 nM. Under B24 stands 11 ± 0.5 nM; under B25, 12.3 ± 0.6 nM; under B26, 59 ± 11 nM.

Take B27: the affinity, expressed as Kd, was 15.5 ± 1.4 nM.

As usually defined, the Kd is the constant that tells how readily two partners part at equilibrium. Read a low Kd as tighter binding.

The values are drawn from publication PMC10786891, “Massively parallel profiling of RNA-targeting CRISPR-Cas13d”.
